The source of these data is the DeepSol protein solubility set.

The series is described as follows: soluble on expression in E. coli; label from the status in PepcDB or PDB records.
For “MSLTAHGLCEFIDASPSPFHVCATVAGRLLGAGYRELREADRWPDKPGRYFTVRAGSLVAWNAEQSGHTQVPFRIVGAHTDSPNLRVKQHPDRLVAGWHVVALQPYGGVWLHSWLDRDLGISGRLSVRDGTGVSHRLVLIDDPILRVPQLAIHLAEDRKSLTLDPQRHINAVWGVGERVESFVGYVAQRAGVAAADVLAADLMTHDLTPSALIGASVNGTASLLSAPRLDNQASCYAGMEALLAVDVDSASSGFVPVLAIFDHEEVGSASGHGAQSDLLSSVLERIVLAAGGTREDFLRRLTTSMLASADMAHATHPNYPDRHEPSHPIEVNAGPVLKVHPNLRYATDGRTAAAFALACQRAGVPMQRYEHRADLPCGSTIGPLAAARTGIPTVDVGAAQLAMHSARELMGAHDVAAYSAALQAFLSAELSEAEGHHHHHH”, the “soluble on expression in E. coli” value is listed as “not soluble”.

For the sequence “GQVIARHKVREFNINPVNTPTKSKLHPSVFYDVFPGDKEPAVLSDNDPRLEVKLTESLFSKYKGNVNTEPTENMLVAVDHYAGQLLSLDIPTSELTLKEALYGVDGLEPIDITTSAGFPYVSLGIKKRDILNKETQDTEKMKFYLDKYGIDLPLVTYIKDELRSVDKVRLGKSRLIEASSLNDSVNMRMKLGNLYKAFHQNPGVLTGSAVGCDPDVFWSVIPCLMDGHLMAFDYSNFDASLSPVWFVCLEKVLTKLGFAGSSLIQSICNTHHIFRDEIYVVEGGMPSGCSGTSIFNSMINNIIIRTLILDAYKGIDLDKLKILAYGDDLIVSYPYELDPQVLATLGKNYGLTITPPDKSETFTKMTWENLTFLKRYFKPDQQFPFLVHPVMPMKDIHESIRWTKDPKNTQDHVRSLCMLAWHSGEKEYNEFIQKIRTTDIGKCLILPEYSVLRRRWLDLFHHHHHH”, the “soluble on expression in E. coli” value was “soluble”. To “MGSDKIHHHHHHKIKQTAGRDQLGTFAPKFAELNDDILFGEVWSRTEQLGLRDRSLVTITSLISQGITDSSLTFHLQSAKNNGITRTEIAEIITHIGFYAGWPKAWAAFRLAKEVWNEDISCKDKDEKTTFQREMIFPIGEPNTAYAQYFTGNSYLAPISREQASISNVTFEPRCRNNWHIHHATQGGGQMLIGIAGRGWYQEEGKAAVEILPGTVIHIPANVKHWHGAAANSWFAHLAFELSGENTSNEWLEPVTDEEYDKIQMLP” belongs “not soluble”. To “MGSDKIHHHHHHMRKIKLIIFPGYYIPHIGGLETHVDEFTKHLSEDENYDIYIFAPNIPKYKEFEIRHNNVKVYRYPAFEIIPNYPVPNIFNIKFWRMFFNLYKIDFDIVMTRTRFFSNTLLGFIFAKLRFKKKKLIHVEHGSAFVKLESEFKNKLSYFYDKTIGKLIFKKADYVVAISKAVKNFILENFVNDKDIPIIYRGLEIEKIESIGEDKKIKEKFKNKIKLCFVGRLYKWKGVENIIKAYVDLPKDLKEKIILIVVGYGEDLERLKKLAGNYLNNGIYFTGKVDFEKAIAIVKASDIYIHSSYKGGGLSSSLLQAMCCGKAIVASPYEGADEVVIDGYNGILLKDNSPEEIKRGIIKLIENNNLRKIYGENAKNFIKENFNWKKSVKEYKKIFERLVN” belongs “not soluble”. To “MAHHHHHHMGLKFYVLVFLILCLKNVVKGDKCETEFSKLYPESNSLTGLIYAHTANVHKLSMWVYFIYNHFSSADELIKYLEKTNINTLENSDHTCFARAVTLYLFYYYLKDIKSMLSTDDYQSFFKNKFKDINPLFINDFILILNDKKFMENLDLYIMKESEREHLVIKKNPFLRVLNKASTTTHATYKSNPYFIVGSRVHTPYKDYLGDFNKYTEISVLNYVRDYNFLIYAGSRENYYNSDIAGPARSVNNVISKNKTLGLRKRSSSLALVGTNNNDPIFAYCEKDNKSEYYGTPDDLITSFFSIIKTKMLNSHKTFLRQFDYALFHKTYSIPNLKGFRFLKHLFQKKNLVNFVGMYENHVSTEINFLAEDFVELFDVTMDCYSRQYSNRAAENFKAIRELNVL” belongs “not soluble”; to “SNSLHWPTSLPSGDAFSSVGTHRFVQKVEEMVQNHMTYSLQDVGGDANWQLVVEEGEMKVYRREVEENGIVLDPLKATHAVKGVTGHEVCNYFWNVDVRNDWETTIENFHVVETLADNAIIIYQTHKRVWPASQRDVLYLSVIRKIPALTENDPETWIVCAFSVDHDSAPLNNRCVRAKINVAMICQTLVSPPEGNQEISRDNILCKITYVANVNPGGWAPASVLRAVAKREYPKFLKRFTSYVQEKTAGKPILF”, “soluble”; to “MTITALTVTLPLLWRRLTTAGVKYADQGHFVGSAGVPAADAGGRDAASEQIARWTQTCTVVLVCGHGPAKWAFRSWCTSRSCDTLPVALRYRLQSNPLVGKLTTKYFLPLGTRQVGDHVVFFNFGYEEDPPMALPLSESDEPNRYCIQLYHQTASQVDLTGKEVLEVSCGAGGGASYIARNLGPASYTGLDLNPASIDLCRAKHRLPGLQFVQGDAQNLPFPDESFDAVVNVEASHQYPDFRGFLAEVARVLRPGGHFLYTDSRRNPVVAEWEAALADAPLRTISQRDIGAQAKRGLDANTARSQEAIGRRAPVLLAGLTRCAVRVLDWDLRRGGGFSYRIYLFAKD”, “not soluble”. Take “MAHHHHHHMSDAFEARMSAMRARLSSLCHTVEEQEVEQQQQRRSFEHRYFVEARAAGSAATPAATKPITSTATPPSSAPISRPVTSKSQVPRTDGISERDVNQVHSASRKDAAFGHHFGTSSPSASITRARAAKPGSGVNAMLQLARYHASGSWSEAVVTKDIVRFTGGRSSPVPKAPATIPPEAFAVNTGQDTTDSSPVPLMPCGVAGLHSYGFRERLPSPRRPTASLAANTVDLASRNGEGRTSQNTPREESCITAADTTIVDTMHADEATSFDAFRVVQERLRQKMMQLTTTSPHSVVPLSTRGAPAEFAVSDDATAPREELPHRGLTASRAVSDVDGSSPSPRPPPGTRAETATPTRSPDKDESSSHETAPLPQTTPRYQHGQGDTWTDVEVLPATTEPDTENATEARLFTHGSLHDSVVGSGDETTAVSREWQWSRCGVPSTKARTANVPRGVFDPTVRHVRVSRMPSSDAQLNPAAGEQRADSREYRRSPEAATAGRAHSDRGRSGRTTASIQHGVSSAPRRSGSRHAPSSTSAARWSATREGSVSTAARSRKSAPKPAARPKPISLNVEATILCPVTGAELFALLRMRGLIDSEGDTAEYRLPPVRCHRLYVTAEEHRQLKLLRQSLHSLVAEEQHQDIPSYQRFTVSARSRNAEFAPPPPVLRYMDV”: the “soluble on expression in E. coli” value is given as “not soluble”. The result for “MLVAERHEKIIALVTEKGSVRVSELSQLFNVTEETIRRDLEKLESERKLQRSHGGAVSIKEDTEAPYFEREIRNVNEKQAVAAQAVTYVTTNDRIILDASTTAWYMAKRLPDVPLTVLTNSMKVAMELAKREKITVITVGGTLLRKSLSFVGPQTNQTLELYHVNKAFISCQGVHAKRGISDSNEMQALVKQKMIDISDHVFLLADHTKFGKQAFSRITSMETIDTIITDSKTSEEQISDFQELEMDVIRALEHHHHHH” reads “soluble”; that for “MDIKVIREKLTLTTSITSESVAEYEHDVDECCRLLEHKLELEMEKKLQLSNRIDVVQSQVTELWDRVDKARRRESDISCRVTAWAQHLSEMMNEVKLKKAKMGTTMEISATLSAEIQESLDLLAEKRVIVQRMREEIDYRRHLHKQQLKDLKLDCDREEEKCEYWNDKSAEIEKVVEMLKEQRKSLGERVEEEKRMEQEQKKMLEELEMLLKKTGKKRQILDENANLVASFSSLTEESS”, “not soluble”. To “MHKAGLLGLCARAWNSVRMASSGMTRRDPLANKVALVTASTDGIGFAIARRLAQDGAHVVVSSRKQQNVDQAVATLQGEGLSVTGTVCHVGKAEDRERLVATAVKLHGGIDILVSNAAVNPFFGSIMDVTEEVWDKTLDINVKAPALMTKAVVPEMEKRGGGSVVIVSSIAAFSPSPGFSPYNVSKTALLGLTKTLAIELAPRNIRVNCLAPGLIKTSFSRMLWMDKEKEESMKETLRIRRLGEPEDCAGIVSFLCSEDASYITGETVVVGGGTPSRL” belongs “not soluble”; to “SSGLVPRGSHMSEMIYGIHAVQALLERAPERFQEVFILKGREDKRLLPLIHALESQGVVIQLANRQYLDEKSDGAVHQGIIARVKPGRQYQENDLPDLIASLDQPFLLILDGVTDPHNLGACLRSADAAGVHAVIVPKDRSAQLNATAKKVACGAAESVPLIRVTNLARTMRMLQEENIWIVGTAGEADHTLYQSKMTGRLALVMGAEGEGMRRLTREHCDELISIPMAGSVSSLNVSVATGICLFEAVRQRS”, “soluble”.

Consider “MGSDKIHHHHHHMLELRHLRTLIALRDAGSLVEAAERVHLTQSALSHQIKDLEERLGSPLFLRKTRPVTFTRAGERLLALAEQILPQIRMAERDLARLAGHEQGRLHMAIECHSCFQWLMPTIDHFRDHWPEVEVDIPSGYSFDALPSLARESLDLVITADPQPLAGIHYEPLFRYEGLLAVGKQHPLARRDWVTPEELARETLITYPVEHTRLDVFTQFLTPAGFTPAEVRTAELTIMMMQLVASGRGVCALPNWALTEYLERGYVRALHLGEQGVWSTLFAAIREESRDAPWMEDFLRTARETSFAVLAGIKPA”, for which the “soluble on expression in E. coli” value is on record as “not soluble”. The result for “QPALPEAMYQLLSGAHYRTSPLDLRRMMDAPGQAFRCARTGGAVAGALWLVAEGGLSPELSRAVWAGFRRPRGNLVAQSLAAHGGSPLAATLRGLRVSRIAVHPTRQREGLGRKMIADIAADAAGYDYLSVSFGYTAELWRFWQRCG” reads “not soluble”.

As for “MAGDPMKKLVTATTLTAGIGTALVGQAHHADAAENYTNYNNYNYNTTQTTTTTTTTTTTSSISHSGNLYTAGQCTWYVYDKVGGEIGSTWGNANNWAAAAQGAGFTVNHTPSKGAILQSSEGPFGHVAYVESVNSDGSVTISEMNYSGGPFSVSSRTISASEAGNYNYIHILEHHHHHH”, the “soluble on expression in E. coli” value is given as “not soluble”. To “MRGSHHHHHHTDPALRASVKVIVTDMDGTFLNDAKTYNQPRFMAQYQELKKRGIKFVVASGNQYYQLISFFPELKDEISFVAENGALVYEHGKQLFHGELTRHESRIVIGELLKDKQLNFVACGLQSAYVSENAPEAFVALMAKHYHRLKPVKDYQEIDDVLFKFSLNLPDEQIPLVIDKLHVALDGIMKPVTSGFGFIDLIIPGLHKANGISRLLKRWDLSPQNVVAIGDSGNDAEMLKMARYSFAMGNAAENIKQIARYATDDNNHEGALNVIQAVLDNTSPFNSGLCGR” belongs “soluble”. As to “MDKLKFGLVSLGCDKNRVDSEIILGSMNRDYEIVNDPREADVILVNTCGFIESAKQESINTILEMNKYKEKYNCKMLIATGCLTQRYGKELKELVPEIDAILGVNDYKSLDDAIEDFFNLGKKDIYCNYSDQSINEGKRIITTGEYSSYVRISEGCNNSCSYCIIPKIRGKYRSRQFENIIDEVRELSENGTKEVILIAQDTTRYGVDLYGRKRLHELLKEMSLIQGIEWIRIMYCYPEEITEELIEEIASNEKVCNYIDMPIQHISDNILKNMFRKTRKSEILDKVEKIRKKVPNIAIRTSLIVGFPGETEGDFNELCDFVKDANINNLGVFRYSREEGTKAALMPMQIADTVKEKREEDIMLIQQQVSKNLNAKKIGKVYKVIVEGFNGDYWYGRNFEMAPEIDGKVFFKSQSEIKVGSFINIKITENLEYDLIGVVYNEFSKLEHHHHHH”, the “soluble on expression in E. coli” value was “soluble”.

“MSLSAGLRFTLEVDGLPPDAFAVVSFHLNQSFSSLFSLDLSLVSQQFLSLEFAQVLDKMAYLTVWQGDDVQRRVKGVVTWFELGENDKNQMLYSMKVCPPLWRTGLRQNFRIFQNEDIESILATILKENGVTEWSPLFSEPHPSREFCVQYGETDYDFLCRMAAEEGIFFYEEHAQKSTDQSLVLCDTVRYLPESFEIPWNPNTRTEVSTLCISQFLYSAQIRPSSVVTKDYTFKRPGWAGRFDQEGQHQDYQRTQYEVYDYPGRFKGAHGQNFACWQMDGWRNNAEVARGTSRSPEIWPGRRIALTGHPQANLNREWQVVASELHGEQPQAVPGRRGSGTTLNNHFAVIPADRTWRPQPLLKPLVDGPQSAVVTGPAGEEIFCDEHGRVRVKFNWDRYNPSNQDSSCWIRVAQAWAGTGFGNLAIPRVGQEVIVDFLNGDPDQPIIMGRTEGHHHHHH”: the “soluble on expression in E. coli” value was “not soluble”.
